Measured values from patent US20210332111A1 (WASHINGTON UNIVERSITY, published 2021).
Numbering of substitutions follows the chain as printed. Values joined by “and” are separate entries in the source; they are usually repeats but may differ in a detail not shown here. Equal values may be shown once. Read-outs that look alike come from different tables or passages of the source.

T1: recombinant WNV E ectodomain (strain New York 1999) (West Nile virus, strain New York 1999, UniProt Q9Q6P4 291-694)
T1 construct: range 291-694
T1 sequence: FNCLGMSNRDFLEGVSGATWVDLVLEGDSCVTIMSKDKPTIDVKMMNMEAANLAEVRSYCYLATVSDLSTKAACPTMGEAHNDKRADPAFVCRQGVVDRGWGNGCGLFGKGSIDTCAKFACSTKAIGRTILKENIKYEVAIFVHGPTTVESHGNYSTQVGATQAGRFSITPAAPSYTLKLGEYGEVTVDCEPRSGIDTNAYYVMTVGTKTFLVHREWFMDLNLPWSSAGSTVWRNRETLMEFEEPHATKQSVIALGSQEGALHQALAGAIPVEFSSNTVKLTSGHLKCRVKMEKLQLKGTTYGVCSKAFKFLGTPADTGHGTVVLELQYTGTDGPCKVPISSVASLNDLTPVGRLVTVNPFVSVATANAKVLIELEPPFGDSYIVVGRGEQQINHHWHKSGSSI

B1: ZV-48 monoclonal antibody (antibody, V domains shown)
VH: QVQLQQPGAELLKPGASVKLSCKASGYSFSNYWMHWVKQRPGQGPEWIGMIHPNSGNTKYNEKFKNKATLTVDKSSSMVYMQLSSLTSEDSAVFYCARLGNDMDYWGQGTSVTVSS
VL: DIVMSQSPSSLAVSVGEKITMSCKSSQSLLYSNNEKNYLAWYQQKPGQSPKLLIYWASARDSGVPDRFTGSGSGTDFTLTISSVKAEDLAVFYCQQYYSYPYTFGGGTKLEIK
notes: also called ZIKV-48
B2: ZV-54 monoclonal antibody (antibody, V domains shown)
VH: QVQLQQSGVGLARPGTSVKLSCKASGYSFTTYGISWVTQRPGQGLEWIGVIYPRSNNTYYNERFRGKATLTADKSSSSAYLELRGLTAEDSAVYFCARENYGSVYWGQGTTLTVSS
VL: DIVMTQSQKFMSTSVGDRVTITCKASQSVGTAVAWYHQKPGQSPKLLIYSASNRYTGVPDRFTGSGSGTDFTLTITYMQSEDLADYFCQQFSNYPFTFGGGTKLEIK
notes: also called ZIKV-54
B3: ZV-67 monoclonal antibody (antibody, V domains shown)
VH: B2 VH with V2A, V9T, T16A, S28T, T31S, P41A, N56G, R63K, L81M
VL: B2 VL with T20S, S28N, H37Q, T76S, Y77N, N93S, F96Y
notes: also called ZIKV-67
B4: ZV-2 monoclonal antibody (antibody, V domains shown)
VH: QVQLQESGAELMKPGASVKLSCKTSGYTFIGYWIEWLKQRPGHGLEWVGEIFPGSGRTKYNEKFKGRATFTADTSSNMAYMQLSSLTTEDSAIYYCARYYYGSYYALDYWGQGTSVTVSS
VL: DIVMTQSPSSLSVSAGEKVTLSCKSSQSLLHSGNQKNYLAWYQQKPGQAPKLLIYGASTRESGVPDRFTGSGSGTDFTLTISSVQAEDLAVYYCQNDHSYPLTFGAGTKLELK
notes: also called ZIKV-2

Experiments:
[1] = target: T2, recombinant ZIKV DIII (domain III of the E protein, strain H/PF/2013, residues 299 to 407) (Zika virus, strain H/PF/2013, UniProt A0A024B7W1 591-694); assay: BLI; half-life calculated from the dissociation constant, kd kinetic
[2] = target: T2, recombinant ZIKV DIII (domain III of …); assay: BLI, equilibrium
DENV4 E = target: T3, DENV4 E; assay: direct ELISA, antigen coated at 2 µg/ml, OD 450 nm
T3 construct: also called DV4-E; recombinant DENV-4 E ectodomain

[3] = target: T2, recombinant ZIKV DIII (domain III of …)
ZIKV = target: T4, ZIKV; assay: flow cytometry, infected cells fixed and permeabilized, mAb at 10 µg/ml, Alexa Fluor 647 anti-mouse IgG
T4 construct: also called ZIKV H/PF/2013-infected Vero cells

[4] = target: T1, recombinant WNV E ectodomain (strain …); assay: ELISA on plate-adsorbed WNV E
[5] = target: T2, recombinant ZIKV DIII (domain III of …); assay: BLI, biotinylated mAb on streptavidin sensor, DIII in solution; KD (equilibrium)
[6] = target: T5, ZIKV quad-fusion-loop variant of the E ectodomain (ZIKV E-FL) (Zika virus, strain H/PF/2013); assay: direct ELISA, antigen coated at 2 µg/ml, mAb at 0.5 µg/ml, OD 450 nm
T5 construct: Variant of m8

[7] = target: T6, recombinant soluble ZIKV E protein ectodomain (strain H/PF/2013) (Zika virus, strain H/PF/2013); assay: as above
T6 construct: also called ZIKV E ectodomain; monomeric form of the ectodomain of E

[8] = target: ZIKV strain H/PF/2013 (French Polynesia, 2013), infectious virus (Zika virus, strain H/PF/2013); assay: cell-based or functional assay
[9] = target: T2, recombinant ZIKV DIII (domain III of …); remark: listed apart in the source
[10] = target: T2, recombinant ZIKV DIII (domain III of …); remark: listed apart in the source
[11] = target: ZIKV subviral particles (SVPs, prM-E of strain H/PF/2013) (Zika virus, strain H/PF/2013)

Row | Binder | t1/2 [1] | Kd [2] | binding result (DENV4 E) | Kd [3] | koff [3] | kon [3] | binding result (ZIKV) | binding result [4] | Kd [5] | binding result [6] | binding result [7] | % Neutralization (undiluted sups), focus reduction on Vero cells [8] | koff [9] | kon [9] | Kd [10] | EC50 (read off the curve) [11]
1 | B1 | 3.2 min | ~35 nM | no binding (tested: 0.5 µg/ml) | 26.8 nM and 35.2 nM | 0.0038 s⁻¹ | 148000 M⁻¹ s⁻¹ | binds | no binding (tested: 0.5 µg/ml) | 35 nM | binds | binds | 100% |  |  |  | 
2 | B2 | 33 min | < 10 nM | no binding (tested: 0.5 µg/ml) |  |  |  | binds | no binding (tested: 0.5 µg/ml) | 7.9 nM | binds | binds | 100% | 0.000312 s⁻¹ | 149000 M⁻¹ s⁻¹ |  | 
3 | B3 | 13.8 min | < 10 nM | no binding (tested: 0.5 µg/ml) |  |  |  | binds | no binding (tested: 0.5 µg/ml) | 8.8 nM | binds | binds | 100% |  |  | 6.77 nM and 9.89 nM | ~5 ng/mL
4 | B4 | 0.3 min | > 250 nM | no binding (tested: 0.5 µg/ml) | 121 nM and 295 nM |  |  |  | no binding (tested: 0.5 µg/ml) | 266 nM | binds |  | < 30% |  |  |  | 
